Results as given in paper PMC5138093 (Journal of molecular biology, 2016).

Molecular target: the molecule itself
Test: non-reducing SDS-PAGE and western blot

B1: GST fusion of the extracellular domain of IGPR-1 (GST-E-IGPR-1) (domain or fragment, human, UniProt Q96BF3 23-150, looked up)
chain: LSVQQGPNLLQVRQGSQATLVCQVDQATAWERLRVKWTKDGAILCQPYITNGSLSLGVCGPQGRLSWQAPSHLTLQLDPVSLNHSGAYVCWAAVEIPELEEAEGNITRLFVDPDDPTQNRNRIASFPG
Question: Does B1 bind?
Answer: binds
